According to patent US20120220015A1 (BIOLEX THERAPEUTICS, published 2012):

Assays:
Assay in all cases: cell-based or functional assay
[1] = molecular target: Lemna-derived plasmin from transgenic line BAP12-B2-150 (aglycosylated plasmin derived from mature human … (human, UniProt P00747 97-580; P00747 581-810)
[2] = molecular target: Lemna-derived plasmin from transgenic line BAP01-B2-230 (derived from mature human plasminogen with the … (human, UniProt P00747 97-580)); P00747 581-810, Asn-289 of mature plasminogen (Asn-212 of plasmin) partly N-glycosylated)
[3] = molecular target: human reference plasmin (commercial, human-derived plasmin) (human)
human reference plasmin (commercial, human-derived plasmin) (human), sequence (P00747 20-580, chain 1 of 2): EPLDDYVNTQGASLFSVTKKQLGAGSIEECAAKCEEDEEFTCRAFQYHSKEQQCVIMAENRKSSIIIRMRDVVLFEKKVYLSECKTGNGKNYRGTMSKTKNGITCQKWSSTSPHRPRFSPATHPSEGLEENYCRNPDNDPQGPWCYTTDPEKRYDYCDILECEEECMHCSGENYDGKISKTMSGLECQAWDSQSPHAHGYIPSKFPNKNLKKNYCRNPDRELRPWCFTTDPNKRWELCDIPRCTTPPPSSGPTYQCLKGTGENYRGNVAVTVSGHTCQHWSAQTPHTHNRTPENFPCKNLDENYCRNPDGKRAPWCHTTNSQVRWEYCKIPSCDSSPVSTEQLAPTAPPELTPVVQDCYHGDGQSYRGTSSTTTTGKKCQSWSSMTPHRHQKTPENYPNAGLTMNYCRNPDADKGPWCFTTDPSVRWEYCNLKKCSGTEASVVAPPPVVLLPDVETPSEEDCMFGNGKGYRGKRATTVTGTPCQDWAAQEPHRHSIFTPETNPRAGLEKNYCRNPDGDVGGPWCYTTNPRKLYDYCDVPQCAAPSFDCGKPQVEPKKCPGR
human reference plasmin (commercial, human-derived plasmin) (human), sequence (P00747 581-810, chain 2 of 2): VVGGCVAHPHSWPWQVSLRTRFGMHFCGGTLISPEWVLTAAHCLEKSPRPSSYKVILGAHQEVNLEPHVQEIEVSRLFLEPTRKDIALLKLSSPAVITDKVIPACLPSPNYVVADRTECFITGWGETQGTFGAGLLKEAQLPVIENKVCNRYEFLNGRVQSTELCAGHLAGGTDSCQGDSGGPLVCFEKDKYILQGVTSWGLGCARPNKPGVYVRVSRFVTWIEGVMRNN

Lemna-derived plasmin from transgenic line BAP12-B2-150 (aglycosylated plasmin derived from mature human …, sequence (P00747 97-580 N308D, form in doubt, chain 1 of 2): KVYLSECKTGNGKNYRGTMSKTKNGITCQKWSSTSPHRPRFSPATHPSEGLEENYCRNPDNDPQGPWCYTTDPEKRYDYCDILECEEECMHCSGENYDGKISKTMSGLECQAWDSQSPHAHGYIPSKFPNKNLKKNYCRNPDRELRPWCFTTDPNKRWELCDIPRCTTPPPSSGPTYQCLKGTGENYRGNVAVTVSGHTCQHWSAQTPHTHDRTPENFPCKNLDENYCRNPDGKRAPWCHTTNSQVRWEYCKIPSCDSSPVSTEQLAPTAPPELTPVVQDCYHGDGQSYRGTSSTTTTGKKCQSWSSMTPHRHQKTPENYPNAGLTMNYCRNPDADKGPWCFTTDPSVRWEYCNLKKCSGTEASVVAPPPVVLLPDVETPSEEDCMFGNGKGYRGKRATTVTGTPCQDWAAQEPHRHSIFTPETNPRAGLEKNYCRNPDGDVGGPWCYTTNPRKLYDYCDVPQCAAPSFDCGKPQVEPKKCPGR
Lemna-derived plasmin from transgenic line BAP12-B2-150 (aglycosylated plasmin derived from mature human …, sequence (P00747 581-810 I701V, form in doubt, chain 2 of 2): as the sequence (P00747 581-810, chain 2 of 2) above, with I121V counted along it
Lemna-derived plasmin from transgenic line BAP01-B2-230 (derived from mature human plasminogen with the …, sequence (P00747 97-580, form in doubt, chain 1 of 2): as the sequence (P00747 97-580 N308D, form in doubt, chain 1 of 2) above, with D212N counted along it
Lemna-derived plasmin from transgenic line BAP01-B2-230 (derived from mature human plasminogen with the …, sequence (P00747 581-810 I701V, form in doubt, chain 2 of 2): as the sequence (P00747 581-810, chain 2 of 2) above, with I121V counted along it

percent of plasmin inhibited, no pre-incubation with α2-AP, molar ratio of 1:1 (S-2403 chromogenic assay) [1]: 60%
percent of plasmin inhibited, no pre-incubation with α2-AP, molar ratio of 1:1 (S-2403 chromogenic assay) [2]: 60%
percent of plasmin inhibited, no pre-incubation with α2-AP, molar ratio of 1:1 (S-2403 chromogenic assay) [3]: ~90%
B1: α2-antiplasmin (other, UniProt P08697 40-491, looked up)
chain: NQEQVSPLTLLKLGNQEPGGQTALKSPPGVCSRDPTPEQTHRLARAMMAFTADLFSLVAQTSTCPNLILSPLSVALALSHLALGAQNHTLQRLQQVLHAGSGPCLPHLLSRLCQDLGPGAFRLAARMYLQKGFPIKEDFLEQSEQLFGAKPVSLTGKQEDDLANINQWVKEATEGKIQEFLSGLPEDTVLLLLNAIHFQGFWRNKFDPSLTQRDSFHLDEQFTVPVEMMQARTYPLRWFLLEQPEIQVAHFPFKNNMSFVVLVPTHFEWNVSQVLANLSWDTLHPPLVWERPTKVRLPKLYLKHQMDLVATLSQLGLQELFQAPDLRGISEQSLVVSGVQHQSTLELSEVGVEAAAATSIAMSRMSLSSFSVNRPFLFFIFEDTTGLPLFVGSVRNPNPSAPRELKEQQDSPGNKDFLQSLKGFPRGDKLFGPDLKLVPPMEEDYPQFGSPK
